This data set deals with the molecule itself. Kind of data set: SEC; Superdex 200 Increase 10/300 GL, 20 mM Tris-HCl pH 7.9, 500 mM NaCl; also series at 1, 5 and 15 mg ml^-1 protein and at four NaCl concentrations. Background: Size exclusion chromatography separates by hydrodynamic size, large species first.

B1: DREP3 CIDE domain (DNA fragmentation factor-related protein 3, residues Phe112-Asp195) (domain or fragment, Drosophila melanogaster, UniProt Q0E9B7 112-195, looked up)
chain: FAQLDNSKPFKIKDITRNIRKAVVATTLSELRTKVSLKFERAQPAIHLDCDGTEVDDEEYFSTLEPNAELIAVFPGEQWRDPSD
notes: DREP3 (DNA fragmentation factor-related protein 3), Drosophila melanogaster, UniProt Q0E9B7, CIDE domain, residues Phe112-Asp195; Cloned with NdeI and XhoI into pET-21a; The final model of PDB 7v6e holds residues 117-193; also called wild-type DREP3 CIDE domain; WT DREP3 CIDE domain; source: E. coli BL21 (DE3), purified (Ni-NTA, SEC)
As to B1, the binding result is listed as “binds”.
